The target in experiment [1] is T1, Recombinant human CD40 extracellular domain fused to human IgG1-Fc domain (huCD40-Fc; R&D Systems 149-CD-50) (human, UniProt P25942 21-193).
T1 construct: extracellular domain; Bought reagent; also called human CD40-Fc; not shown: human IgG1-Fc domain
In words: SPR (Biacore 3000), immobilised huCD40-Fc, bivalent binding (1:2) model, kd1. On the procedure:
(§1) The kinetics of ch5D12 (PG100) and PG102 (I29L variant) binding to human CD40 were compared by surface plasmon resonance at a constant temperature of 25.0° C., using a Biacore 3000 instrument. Recombinant human CD40 extracellular domain fused to human IgG1-Fc domain (huCD40-Fc; R&D Systems catalogue number 149-CD-50) was used as the target antigen in these experiments. HuCD40-Fc (1 µg/mL in 10 mM acetate buffer, pH 5.0) was coupled via the amine groups of Lys residues to carbodiimide-activated Biacore CM5 chips, resulting in an antigen immobilization level of 127.4 RU. For kinetic analyses, dilution series of ch5D12 (PG100) and PG102 (range 10.0 µg/mL to 0.313 µg/mL) were prepared in Biacore Running Buffer (HEPES-buffered saline containing EDTA and surfactant; HBS-EP). Kinetic analyses were performed at a flow rate of 30 µL/min. Samples were allowed to bind for 4 min and to dissociate for 5 min, at the same flow rate. The chip surface was then regenerated for 30 seconds using 30 mM NaOH and a baseline re-established in HBS-EP for 2.5 min before injection of the next sample. […]
(§2) BIAcore control software (Version 3.2) was used for data collection and BIAevaluation software (Version 4.1) was used for analysis of kinetic data. Binding parameters were calculated using two different models of molecular interaction: a bivalent analyte model and Langmuir 1:1 binding model.

The target in experiment [2] is T2, human CD40 (human, UniProt P25942 21-277).
T2 construct: whole, on cells; also called huCD40; CD40 expressed on JY cells
T2 sequence (P25942 21-277): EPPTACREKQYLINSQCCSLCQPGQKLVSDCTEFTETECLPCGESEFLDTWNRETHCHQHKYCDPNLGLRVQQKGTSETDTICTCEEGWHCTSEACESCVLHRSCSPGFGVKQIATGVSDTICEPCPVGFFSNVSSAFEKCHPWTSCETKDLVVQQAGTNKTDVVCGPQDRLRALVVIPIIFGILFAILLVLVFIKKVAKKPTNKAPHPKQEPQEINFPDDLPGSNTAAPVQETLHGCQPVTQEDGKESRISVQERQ
In words: FACS on JY cells expressing CD40; 100 µl PER.C6 transient supernatant harvested after 48 h (antibody concentration not equalised), FITC anti-human IgG 1/100; in the same figure Mock Control Mean 11.25 / Median 8.74, FACS control (secondary only) Mean 10.18 / Median 8.74. On the procedure:
FIG. 8. FACS analysis using JY cells. PER.C6 cell supernatant of the transient expressed variants (Q5E, K13A, E16Q, T17S, I29L, 37V, P45L, M48L, STS60NSA, T68S, S79F, and T108S) of 5D12 was harvested after 48 h. As control also supernatant was harvested of cells transfected with either ch5D12 or D15D12 together with supernatant from mock (no plasmid) transfected cells. Binding of expressed antibodies was tested by FACS using JY cells together with anti-human FITC labelled secondary antibody (1/100 diluted). As FACS control JY cells were incubated with only the secondary FITC labelled antibody.
By FACS analysis the antigen specificity of the expressed antibodies was analyzed. JY cells are EBV transformed human B-cells, which express CD40. Briefly, 100,000 JY cells were incubated with 100 µl supernatant from the transient expression experiment at 4° C. for 20 minutes. To remove unbound antibody cells were washed with PBS containing 0.05% NaAzide and 1% BSA. As secondary antibody 1/100 diluted FITC labeled anti-human IgG (Jackson 109-095-127) was used. After 20 minutes incubation at 4° C. cells were washed. Finally cell samples were measured on a FACScan (BD).

The target in experiment [3] is T2, human CD40. Put plainly: cell-based or functional assay.
Experiment [4] addresses T2, human CD40. In words: flow cytometry competition on JY cells against 1 µg/mL PE-labelled ch5D12 (PG100) or PG102; range told of both antibodies. On the procedure:
(§3) Competitive Inhibition of ch5D12 (PG100)-PE and PG102-PE Binding to JY Cells Expressing Human CD40 Using Unlabelled Anti-CD40 Antibody Materials and Methods JY cells (Epstein—Barr virus-transformed human B lymphoblastoid cell line) were grown in Iscove's Modified Dulbecco's Medium (IMDM) containing 10% heat-inactivated foetal calf serum (FCS), 2 mM L-glutamine and 50 μg/mL gentamycin in an air-humidified atmosphere containing 5% CO_2, at 37° C. Cells were harvested on the day of flow cytometric measurements.
(§4) Unlabelled ch5D12 (PG100) (Batch 4) and PG102 (Batch 2) antibodies were used in these experiments. Both antibodies were also used in PE-labelled form for direct determination of binding to JY cells by flow cytometry. Antibodies were custom-labelled with PE by AbD Serotec (Oxford, UK). For each FACS analysis the following protocol was used. JY cells were harvested from cell culture and counted. […] Cells were washed followed by flow cytometric analysis in which the MFI at every concentration was determined using a FACScan flow cyometer (Becton & Dickinson). Five thousand events/sample were measured and analyzed using CellQuest® software (Becton & Dickinson).

For experiment [5], the target named is T1, Recombinant human CD40 extracellular …. In words: SPR (Biacore 3000), immobilised huCD40-Fc, Langmuir (1:1) model, kd. The method, then: as §1, §2
For experiment [6], the target named is T2, human CD40. Put plainly: flow cytometry on JY cells; competitor 1 µg/mL PG102-PE; n=4. The method, then: as §3, §4
Experiment [7] addresses T1, Recombinant human CD40 extracellular …. Put plainly: SPR (Biacore 3000), immobilised huCD40-Fc, Langmuir (1:1) model. The method, then:
as §1, §2

In experiment [8] the target is T2, human CD40. Put plainly: flow cytometry on JY cells; competitor 1 µg/mL ch5D12 (PG100)-PE; n=4. The method, then: as §3, §4
For experiment [9], the target named is T1, Recombinant human CD40 extracellular …. In words: SPR (Biacore 3000), immobilised huCD40-Fc, bivalent binding (1:2) model. On the procedure:
as §1, §2

For experiment [10] the target is unchanged. In words: SPR (Biacore 3000), immobilised huCD40-Fc, Langmuir (1:1) model, ka. On the procedure:
as §1, §2

The target of experiment [11] is T3, huCD40-muIg (Ancell, catalogue number 504-020) (human, UniProt P25942 21-193).
T3 construct: also called CD40-Fc; human CD40-Fc; not shown: murine Ig part
T3 sequence (P25942 21-193): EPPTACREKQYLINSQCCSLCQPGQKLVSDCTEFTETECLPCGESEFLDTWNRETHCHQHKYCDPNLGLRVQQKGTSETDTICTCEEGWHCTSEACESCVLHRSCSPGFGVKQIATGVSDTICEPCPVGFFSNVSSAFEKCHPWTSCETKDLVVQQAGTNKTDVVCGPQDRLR
In words: ELISA on coated human CD40-Fc; half-maximal binding concentration. The method, then: (§5) Plates were washed 3 times with 200 μL/well wash buffer (0.05% Tween-20 in PBS). Subsequently, plates were blocked with 200 μL/well blocking buffer (5% BSA Fraction V [Roche, catalogue number 735094] in wash buffer) and incubated for 1 h at 37° C. (humid environment). Plates were washed 3 times with wash buffer. Test antibodies (ch5D12 (PG100), PG102, and negative control chimaeric anti-huCD86 antibody chFUN-1) were diluted in the range 0-1200 ng/mL in blocking buffer and transferred to assay plates in a final volume of 100 μL/well, followed by incubation for 1 h at 37° C. (humid environment). Plates were washed 3 times with wash buffer followed by addition of 100 μl/well goat anti-human kappa-AP detection antibody (Southern Biotech Associates catalogue number 2060-0) diluted 1:1000 in blocking buffer. Plates were incubated for 1 h at 37° C. in a humid environment before washing 3 times with wash buffer and a further single wash with PBS.

Experiment [12] has as its target T1, Recombinant human CD40 extracellular …. Put plainly: SPR (Biacore 3000), immobilised huCD40-Fc, bivalent binding (1:2) model, ka1. The method, then:
as §1, §2

Experiment [13] has the same target. Put plainly: SPR (Biacore 3000), immobilised huCD40-Fc, bivalent analyte model; the text value differs from the table's 5.29 × 10^-9 M; bivalent analyte model, not Langmuir. The method, then: as §1, §2
The target in experiment [14] is T3, huCD40-muIg (Ancell, catalogue number …). Put plainly: ELISA on coated human CD40-Fc (huCD40-muIg per methods); n=4. The method, then:
as §5, with “Plates were incubated for 1 h at 37° C. in a humid environment before washing 3 times with wash buffer and a further single wash with PBS.” left out
PNP substrate was prepared by adding 1 tablet p-Nitrophenyl Phosphate tablets (Sigma, catalogue number N-2765) in 15 mL PNP substrate buffer (12.1 g Tris, 5.84 g NaCl, 1.02 g MgCl_2.6H_2O in 1 L H_2O (adjusted to pH 9.6 with HCl). PNP substrate was added to assay plates at 100 μL/well. Plates were incubated for several minutes (max 30 min) at 37° C. to allow colour development before the reaction was stopped by addition of 3M NaOH. Colour intensity was determined at 405 nm using a micro plate reader (Biorad, model 550).

Values joined by “and” are separate entries in the source; they are usually repeats but may differ in a detail not shown here. Identical values can stand only once.

T1 sequence (P25942 21-193): as above

B1: PG102 (I29L variant) (antibody, human IgG4, kappa, V domains shown)
VH: QVKLQESGPGLVKPSETLSITCTVSGFSLSRYSVYWIRQPPGKGPEWMGMMWGGGSTDYSTSLKSRLTISKDTSKSQVSLKMNSLRTDDTAMYYCVRTDGDYWGQGTTVTVSS
VL: ELQLTQSPLSLPVTLGQPASISCRSSQSLANSNGNTYLHWYLQRPGQSPRLLIYKVSNRFSGVPDRFSGSGSGTDFTLKISRVEAEDVGVYYCSQSTHVPWTFGGGTKLEIKR
notes: Human IgG4/kappa; also called 29L-37I
Take B1: the koff worked out at 0.00247 s⁻¹ in experiment [1] and 0.000596 s⁻¹ in experiment [5]. In addition, the “Mean (FL1-H)” value in the experiment with human CD40 [2] stood at 108 FL1-H. Moreover, in the experiment with human CD40 [2], the “Median (FL1-H)” value was found to be 91.8 FL1-H. Besides, the “-log IC50 for inhibition of IL-8 release by IFN-gamma-pulsed THP-1 cells co-cultured with Jurkat 39.8/50 cells” value with human CD40 [3] is 8.42 -log10 (unit not printed). Moreover, in the experiment with human CD40 [4], the IC50 was 0.02 µg/mL to 0.03 µg/mL (2×) and 0.13 nM to 0.2 nM (2×). The “-log IC50” value with human CD40 [6] is 7.65 -log10 of g/mL (per p-0205: ~20-30 ng/mL); with human CD40 [8], 7.63 -log10 of g/mL (per p-0205: ~20-30 ng/mL). Also, the Kd in experiment [7] was 0.237 nM; in [9], 5.41 nM. The kon is 2.51e+06 M⁻¹ s⁻¹ in experiment [10] and 782000 M⁻¹ s⁻¹ in [12]. This molecule also had an EC50 in [11] of about 0.03 µg/mL.

B2: ch5D12 (PG100) (antibody, V domains shown)
VH: QVKLEESGPGLVAPSQSLSITCTVSGFSLSRYSVYWVRQPPGKGLEWLGMMWGGGSTDYNSALKSRLSISKDTSKSQVFLKMNSLRTDDTAMYYCVRTDGDYWGQGTSVTVSS
VL: ELQLTQSPLSLPVSLGDQASISCRSSQSLVNSNGNTYLHWYLQKPGQSPKLLIYKVSNRFSGVPDRFSGSGSGTDFTLKISRVEAEDLGVYFCSQSTHVPWTFGGGTKLEIKR
notes: also called chimeric 5D12
B2: the results for the koff in experiment [1] and in experiment [5] were 0.0016 s⁻¹ and 0.000507 s⁻¹, respectively. In addition, the “-log IC50 for inhibition of IL-8 release by IFN-gamma-pulsed THP-1 cells co-cultured with Jurkat 39.8/50 cells” value in the experiment with human CD40 [3] was 8.28 -log10 (unit not printed). The IC50 in the experiment with human CD40 [4] is 0.02 µg/mL to 0.03 µg/mL (2×) and 0.13 nM to 0.2 nM (2×). Besides, the Kd stood at 5.25 nM in experiment [13], 0.271 nM in [7] and 5.29 nM in experiment [9]. Moreover, the “-log half-maximal binding concentration” value in experiment [14] is 7.54 -log10 of g/ml (per caption: 7.45 ~ 35 ng/ml). For the same molecule, the “-log IC50” value in the experiment with human CD40 [6] is 7.54 -log10 of g/mL (per p-0205: ~20-30 ng/mL); with human CD40 [8] it was 7.5 -log10 of g/mL (per p-0205: ~20-30 ng/mL). Further, the kon in [10] worked out at 1.88e+06 M⁻¹ s⁻¹; in [12], 641000 M⁻¹ s⁻¹. The same molecule came in with an EC50 in experiment [11] of about 0.03 µg/mL.

Source of the values: patent US8669352 (PANGENETICS B V, dated 2014).
